Results as given in patent US20240043508A1 (KOOKMIN UNIVERSITY INDUSTRY ACADEMY COOPERATION FOUNDATION, published 2024).
Positions count from the first letter of the chain named. Where two headings read alike, the source gives them in different places.

B1: RD3 (antibody, V domains shown)
VH: EVQLLESGGGLVQPGGSLRLSCAASGFTFSDYAMSWVRQAPGKGLEWVSWIYSGSGNKYYADSVKGRFTISRDNSKNTLYLQMNSLRAEDTAVYYCARFPIARTSNSQSSYDGMDVWGQGTLVTVSS
VL: QSVLTQPPSASGTPGQRVTISCSGSSSNIGSNAVSWYQQLPGTAPKLLIYADNKRPSGVPDRFSGSKSGTSASLAISGLRSEDEADYYCGAWDSSLNAYVFGGGTKLTVL
notes: also called K102.1
B2: RB6 (antibody, V domains shown)
VH: EVQLLESGGGLVQPGGSLRLSCAASGFTFSSYDMSWVRQAPGKGLEWVSGISYSGGSTYYADSVKGRFTISRDNSKNTLYLQMNSLRAEDTAVYYCARDVNFVPLVTFDYWGQGTLVTVSS
VL: B1 VL with I20L, S23T, A33S, S35T, A51D, K54Q, A91T, S94Y, N97S
notes: also called K102.2
B3: HA-tagged K102.2 (K102.2-HA) (antibody, V domains shown)
VH: B2 VH
VL: B1 VL with I20L, S23T, A33S, S35T, A51D, K54Q, A91T, S94Y, N97S
B4: RG6 (antibody, V domains shown)
VH: EVQLLESGGGLVQPGGSLRLSCAASGFTFSDYSMSWVRQAPGKGLEWVSGIYHSDGSKYYADSVKGRFTISRDNSKNTLYLQMNSLRAEDTAVYYCARFDPVFDYWGQGTLVTVSS
VL: B1 VL with S23T, S35N, N53S, K54N, S94A, N97S
B5: RD10 (antibody, V domains shown)
VH: B4 VH with S33A, G50A, H53P, S54G, D55G, K58T, F99N, D100L, P101F, V102G
VL: B1 VL with S23T, S35Y, A51D, N53S, K54N, A91S, S94D, N97S
B6: RB4 (antibody, V domains shown)
VH: B4 VH
VL: B1 VL with A51D, D52N, K54H, A91S, S94D

How the values were obtained:
SARS-CoV RBD = SARS-CoV RBD (SARS-CoV, UniProt P59594 306-527); assay: ELISA, 0.1 ug antigen coated
[1] = molecular target: T1, SARS-CoV-2 S protein of the wild-type, on pseudotyped lentiviral particles (SARS-CoV-2); assay: cell-based or functional assay
[2] = molecular target: T1, SARS-CoV-2 S protein of the wild-type, …; assay: cell-based or functional assay; remark: listed apart in the source
[3] = molecular target: T2, SARS-CoV-2 RBD (wild-type) (SARS-CoV-2, UniProt P0DTC2 319-541); assay: SPR, RBD immobilised
[4] = molecular target: T2, SARS-CoV-2 RBD (wild-type); assay: SPR (FIG. 24)
SARS-CoV-2 S1 domain = SARS-CoV-2 S1 domain (SARS-CoV-2, UniProt P0DTC2 14-685); assay: ELISA: IgG titrated on plate-bound S1, absorbance at 450 nm
[5] = molecular target: T2, SARS-CoV-2 RBD (wild-type)
[6] = molecular target: SARS-CoV-2 RBD protein (Fc-tagged) (SARS-CoV-2, UniProt P0DTC2 319-541)
[7] = molecular target: T2, SARS-CoV-2 RBD (wild-type); assay: competition ELISA: RBD-His with antibody, binding to coated hACE2-Fc
[8] = molecular target: T2, SARS-CoV-2 RBD (wild-type); assay: SPR, RBD immobilised, 1:1 model
[9] = molecular target: T2, SARS-CoV-2 RBD (wild-type); remark: listed apart in the source
[10] = molecular target: T2, SARS-CoV-2 RBD (wild-type); assay: ELISA, antigen coated, antibody titrated, A450

Binder	binding result (SARS-CoV RBD)	Kd (SARS-CoV-2 S1 domain)	Kd [5]	IC50 [6]	further results
B1	binds				IC50 (nM), pseudovirus neutralization, luciferase in 293T/hACE2 cells [1]: 1.94 nM; IC50 (nM), pseudotyped virus infection [2]: 1.94 nM
B2	binds	3.2 nM	0.716 nM	1.95 nM	Kd [3]: 2.2 nM; kon [3]: 197000 M⁻¹ s⁻¹; Kd [4]: 2.46 nM; fold affinity against K102.3 [4]: ~5 fold; IC50 [7]: 4.94 nM; Kd [8]: 2.2 nM; kon [8]: 197000 M⁻¹ s⁻¹
B3					EC50 (read off the curve) [9]: ~0.05 mg/L
B4		0.22 nM	0.481 nM		
B5		0.317 nM	0.55 nM	1.97 nM	Kd [10]: ~0.1 nM
B6		0.169 nM	0.186 nM	0.841 nM	
